We go through one substance from patent WO2016008851A1.

The target of test [1] is Endogenous human IL-1B (THP1 supernatants) (human) (UniProt P01584). Nature of the test: cell-based or functional assay.
For test [2], the target named is recombinant human IL-1B (human) (UniProt P01584). Nature of the test: cell-based or functional assay.

In test [1], “ACZ885 (disclosed in WO 2002/016436) (antibody)” gave an IC90, Endogenous human IL-1 B (THP1 supernatants), HEK blue of 0.292 nM. In addition, in test [2], the IC50, rec. human IL-1 B, HEK blue is 0.068 nM; the IC50, rec. human IL-1 B, MRC-5 (IL-6 production) stood at 0.032 nM; the IC90, rec. human IL-1 B, HEK blue worked out at 0.503 nM; the IC90, rec. human IL-1 B, MRC-5 (IL-6 production) came to 0.449 nM.
